Source: PMC11601584, “The RNA receptor RIG-I binding synthetic oligodeoxynucleotide promotes pneumonia survival”

Key:
[1] = molecular target: T1, rhRIG-I (236-925), CARD-less (Homo sapiens, UniProt O95786 236-925); assay: EMSA; ODN stock 2.5 uM, protein 0-32 uM, on ice; FP: 20 mM Hepes pH 7.5, 150 mM NaCl, 2 mM TCEP, 4 mM MgCl2, 5% glycerol, 25 C, 2.5 nM labeled oligo; EMSA: 30 min on ice, 6% native gel, 0.5x TBE; details: protein: recombinant; tags: N-terminal His-tag, removed by TEV; 25-mer described as palindromic; partly self-complementary
T1 sequence: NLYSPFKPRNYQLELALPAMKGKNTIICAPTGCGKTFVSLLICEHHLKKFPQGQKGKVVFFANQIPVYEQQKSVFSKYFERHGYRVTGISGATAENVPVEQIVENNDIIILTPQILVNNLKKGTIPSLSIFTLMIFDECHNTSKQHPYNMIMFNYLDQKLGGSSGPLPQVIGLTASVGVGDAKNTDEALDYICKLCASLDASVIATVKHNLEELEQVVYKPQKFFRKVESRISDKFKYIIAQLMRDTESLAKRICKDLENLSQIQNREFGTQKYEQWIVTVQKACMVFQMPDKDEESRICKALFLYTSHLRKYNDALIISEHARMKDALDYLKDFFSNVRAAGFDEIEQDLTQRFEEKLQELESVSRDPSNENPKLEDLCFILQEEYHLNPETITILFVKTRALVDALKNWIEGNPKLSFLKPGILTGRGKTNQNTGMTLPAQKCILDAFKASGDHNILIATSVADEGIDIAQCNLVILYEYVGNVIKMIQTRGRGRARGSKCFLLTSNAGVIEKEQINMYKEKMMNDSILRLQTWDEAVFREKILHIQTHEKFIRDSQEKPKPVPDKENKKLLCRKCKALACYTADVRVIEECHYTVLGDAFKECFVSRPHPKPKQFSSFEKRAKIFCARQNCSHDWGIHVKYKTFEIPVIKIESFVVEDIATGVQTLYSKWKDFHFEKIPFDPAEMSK

[2] = molecular target: T1, rhRIG-I (236-925), CARD-less; assay: fluorescence anisotropy; no nucleotide; 4 mM MgCl2; affinity similar to RNA, Kd only in figure; FP: 20 mM Hepes pH 7.5, 150 mM NaCl, 2 mM TCEP, 4 mM MgCl2, 5% glycerol, 25 C, 2.5 nM labeled oligo; EMSA: 30 min on ice, 6% native gel, 0.5x TBE; details: protein: recombinant; tags: N-terminal His-tag, removed by TEV; label: 5' FAM; 25-mer described as palindromic; partly self-complementary
[3] = molecular target: T1, rhRIG-I (236-925), CARD-less; assay: fluorescence anisotropy; no nucleotide; 4 mM MgCl2; Kd only in figure; FP: 20 mM Hepes pH 7.5, 150 mM NaCl, 2 mM TCEP, 4 mM MgCl2, 5% glycerol, 25 C, 2.5 nM labeled oligo; EMSA: 30 min on ice, 6% native gel, 0.5x TBE; details: protein: recombinant; tags: N-terminal His-tag, removed by TEV; label: 5' FAM on strand 1; blunt

B1: ODN M362, biotinylated (ssDNA)
DNA: TCGTCGTCGTTCGAACGACGTTGAT
modifications: complete phosphorothioate backbone
binding result [1]: binds

B2: ODN M362, FAM (ssDNA)
DNA: TCGTCGTCGTTCGAACGACGTTGAT
modifications: complete phosphorothioate backbone
binding result [2]: binds

B3: 12-mer 5'ppp dsRNA (dsRNA)
RNA 1: CAUGUGGAGCCC
RNA 2: GGGCUCCACAUG
modifications: 5' triphosphate on strand 2
binding result [3]: binds
